The text below walks through data of paper PMC11921551.

In experiment [1] the target is Recombinant human LDL receptor (LDLR) (human) (UniProt P01130). Nature of the experiment: AFM force spectroscopy; LDLR on the AFM probe through PEG (traditional immersion method), LDL immobilised on mica; PBS pH 7.4, 37 °C; n = 200 interactions.
Experiment [2] has the same target. Nature of the experiment: AFM force spectroscopy; receptor on the AFM probe tip through PEG (micro-droplet method), lipoprotein immobilised on mica; PBS pH 7.4, 37 °C, loading force 0.5 nN for 2 s, loading speed 200 nm/s; n = 200 interactions.
The target in experiment [3] is Recombinant human CD36 (human) (UniProt P16671). Described as above.

Recombinant human LDL receptor (LDLR) (human), sequence (P01130 22-788): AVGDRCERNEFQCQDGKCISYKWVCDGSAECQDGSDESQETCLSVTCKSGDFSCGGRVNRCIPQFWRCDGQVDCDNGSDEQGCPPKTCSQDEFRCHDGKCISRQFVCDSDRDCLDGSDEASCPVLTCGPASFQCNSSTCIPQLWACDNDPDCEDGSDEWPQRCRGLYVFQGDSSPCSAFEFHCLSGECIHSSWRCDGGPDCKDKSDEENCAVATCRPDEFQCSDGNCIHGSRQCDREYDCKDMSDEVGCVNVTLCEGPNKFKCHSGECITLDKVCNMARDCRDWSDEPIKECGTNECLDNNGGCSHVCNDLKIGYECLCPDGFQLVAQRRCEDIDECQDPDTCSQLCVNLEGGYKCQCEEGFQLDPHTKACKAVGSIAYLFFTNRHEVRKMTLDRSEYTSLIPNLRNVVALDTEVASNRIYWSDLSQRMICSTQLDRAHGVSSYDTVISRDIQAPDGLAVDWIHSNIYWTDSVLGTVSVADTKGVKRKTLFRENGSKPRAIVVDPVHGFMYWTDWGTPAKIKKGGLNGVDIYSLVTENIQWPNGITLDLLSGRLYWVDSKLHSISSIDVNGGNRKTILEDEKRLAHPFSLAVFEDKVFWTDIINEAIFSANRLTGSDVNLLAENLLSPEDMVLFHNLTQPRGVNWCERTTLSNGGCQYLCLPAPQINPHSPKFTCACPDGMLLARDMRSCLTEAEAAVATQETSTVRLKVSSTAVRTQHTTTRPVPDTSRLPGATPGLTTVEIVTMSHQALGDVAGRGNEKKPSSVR

Take “Human low-density lipoprotein (LDL), P04114 28-4563”: the average specific interaction force in experiment [1] worked out at 322 pN; in experiment [2], 231 pN.

As to “Human oxidized low-density lipoprotein (oxLDL) (from UniProt P04114 28-4563) (complex)”, the average interaction force in experiment [3] was determined as 229 pN.
